{"source": "a protein production outcome set (Wang et al. 2014)", "experiment": "label from the status in PepcDB records"}
{"sequence": "MKILNIFDAVRDGTFQDFKNFYEGNINVISGNLDLNLLCMAVTNDKNPEEKLQIIKFLFAEGIDVNYATQKEKRNALHLFYFCVLRPTIEYEMEITNLFIKHGVNVNATDKYNAIPLKYAITINNLPTSDNKEMYQLLLNKGSDYNLKDGFGKSCLDYAKEYSWRNDFLDIVKEYENSKK", "values": [{"measurement": "protein production", "value": "failed"}]}
{"sequence": "MGDMIFGILTWLPGLILAITLHEAAHGYVASALGDQTARLLGRVTLNPIRHVDPFGTLVLPGLLFLVGAPFLFGWAKPVPVDYRNLRHPKRDMAWVALAGPGMNIFLAVVSAAALHGALLLPDPAADWLITTLQKSVLINCVLAVFNMIPVPPLDGGRVLVGILPMRAAVVVARMERVGMLALIGVIFLLPLALSQFGVDFDPFSRIIGPVVRALLGAVYTTAGIPLF", "values": [{"measurement": "protein production", "value": "failed"}]}
{"sequence": "MSLKTGRSNIIAFIVPDQNPFFTEVLTEISHECQKHHLHVAVASSEENEDKQQDLIETFVSQNVSAIILVPVKSKFQMKREWLKIPIMTLDRELESTSLPSITVDNEEAAYIATKRVLESTCKEVGLLLANPNISTTIGRKNGYNKAISEFDLNVNPSLIHYSDQQLGTNAQIYSGYEATKTLLSKGIKGIVATNHLLLLGALQAIKESEKEIKKDVIIVGFDDSYWNEIYTPKLTVISQPVKEMGQVAAKMIYKLIKGKDVTSIKLSTKLIIRESCSFNEGHHHHHH", "values": [{"measurement": "protein production", "value": "not failed"}]}
{"sequence": "MAHELSAGSVFAGYRIERMLGAGGMGTVYLARNPDLPRSEALKVLAAELSRDLDFRARFVREADVAAGLDHPNIVAVHQRGQFEGRLWIAMQFVDGGNAEDALRAATMTTARAVYVIGEVAKALDYAHQQGVIHRDIKPANFLLSRAAGGDERVLLSDFGIARALGDTGLTSTGSVLATLAYAAPEVLAGQGFDGRADLYSLGCALFRLLTGEAPFAAGAGAAVAVVAGHLHQPPPTVSDRVPGLSAAMDAVIATAMAKDPMRRFTSAGEFAHAAAAALYGGATDGWVPPSPAPHVISQGAVPGSPWWQHPVGSVTALATPPGHGWPPGLPPLPRRPRRYRRGVAAVAAVMVVAAAAVTAVTMTSHQPRTATPPSAAALSPTSSSTTPPQPPIVTRSRLPGLLPPLDDVKNFVGIQNLVAHEPMLQPQTPNGSINPAECWPAVGGGVPSAYDLGTVIGFYGLTIDEPPTGTAPNQVGQLIVAFRDAATAQRHLADLASIWRRCGGRTVTLFRSEWRRPVELSTSVPEVVDGITTMVLTAQGPVLRVREDHAIAAKNNVLVDVDIMTPDTSRGQQAVIGITNYILAKIPG", "values": [{"measurement": "protein production", "value": "failed"}]}
{"sequence": "MTNHEQVLTDYLAAFIEELVQAGVKEAIISPGSRSTPLALMMAEHPTLKIYVDVDERSAGFFALGLAKASKRPVVLLCTSGTAAANYFPAVVEANLSQIPLIVLTADRPHELRNVGAPQAMDQLHLYGSHVKDFTDMALPENSDEMLRYAKWHSSRAVDIAMKTPRGPVHLNFPLREPLVPILEPSPFTATGKKHHHVH", "values": [{"measurement": "protein production", "value": "failed"}]}
{"sequence": "MSYRGLPAMTRNDLTIYDDVAAQWWSDDIRWVRTLKAMVPGRLAFFDRKIDWRDKRVLDLGCAGGFMAEALCERGAIVTGIDPAAQAIDAAREHAELDGHDIRYDVGKGETLPYADDSFDAVVCVDVLEHVEDLDLVLSEVARTLVPGGMFFFDTINRNPLARFATITMAEDILRLLPKGTHDPDMFIKPGELHAALGRAGFVPGR", "values": [{"measurement": "protein production", "value": "failed"}]}
{"sequence": "MTFCYVNAYQGGYILYNKGTKSKEVAKMSTKKVYSFLSQAFIFSAIMLISNIIATHLPIPMPSSVIGLVILFSLLCLKVIKLEQVESLGTALTGIIGFLFVPSGISVINSLGVMGQYFVQILTVIVVATVILLAVTGLFAQFILGKDEKETEDTKELKVVNKGRKHGKVA", "values": [{"measurement": "protein production", "value": "failed"}]}
{"sequence": "MAQYPEQLNGIFQALADPTRRAVLGRLSRGPATVSELAKPFDMALPSFMKHIHFLEDSGWIRTHKQGRVRTCAIEKEPFTAVEAWLAEQQELWESRTDRLEQFVTEHTVTAHAKATPQ", "values": [{"measurement": "protein production", "value": "not failed"}]}
{"sequence": "MSLALQYFKALSDETRLRLIHVLNRHELSVNELVSILEMGQSRVSRHLKILTGAGLLTSRRDGLWVFYSAAAEGDGRAFLDAVTPFVTTDMVLQADLDMAQKIIEERALKTRQFFNAIAEDWDELNREVLGGFDLAGAVAEAMPQCETAVDLGCGTGSVIERMLQRSQQVIGVDGSPRMLELARRRFVEGAERVSLRIGELDHLPLRDGEADFASINMVLHHLSDPGVALGEIRRVLRLGGQLMVTDFDRHDNERMRSDYGDRWLGFEGVQLEGLLREAGFTVRECRRQGVAKGLALHLMLAEKTQQ", "values": [{"measurement": "protein production", "value": "failed"}]}
{"sequence": "MFNGMVRTIRDSVVGTYPSCHVSSRLEERRAKQRAMRQERRRKPDKPDDFVTYEDSGSDEETPQQQEEVLNTSYNLCDYLRSRESGLRDRRSVNVEYTSRYVLTHDMLRETQISLGYINKVFCSKWLSSRQVVFGTKCNKLLVYDVNMRRVDAIPTLSNSRANHPEVQGGLHAIELSPSRSFLATGARNSSDIAVYRLPTLDPVCVGEGGHRDLIMGMCWLDDQFLVSGSKDSRMALWRINEDHMEFPDGGEEACPTFATIHPLSVKEVRTAQRIRSLCFNKEFKEIAALSLNGYIHIFNAETFKQTLSRKLPNCQDNVSIAYHSDGLYAVGCRSYTILLDARTLQTIKKITSRYSGCGIRATSFEGNLLTVGTGLGMLLFYDIRAGKYLESSVNASRTVALKCSKGIVYPEDEMDGFQQVKYVPAIYTHCYDSTRMRLFAAGGPLPATLVGNYAGVWQ", "values": [{"measurement": "protein production", "value": "failed"}]}
{"sequence": "MAAVRKIHVTVKFPSKQFTVEVDRTETVSSLKDKIHIVENTPIKRMQLYYSGIELADDYRNLNEYGITEFSEIVVFLKSINRAKD", "values": [{"measurement": "protein production", "value": "not failed"}]}
{"sequence": "MAHHHHHHMNPHPVEPRDQIAELLVESPLFSFNCAHFIAFKGFRETLHGHNYNVSLRLRGNIQGDGYVIDFSILKEKVRKVCKQLDHHFILPMYSDVLNIQEVNDNFKITCEDNSEYSFPKRDCVQIPIKHSSTEEIGLYILNQLIEEIDLPFLKTRSVNYMEVTVSESPSQKATVHRNI", "values": [{"measurement": "protein production", "value": "not failed"}]}
{"sequence": "PLALFKWDLGFNLLECNQSAISMLNYTEDELKQCDFISALVPINEQKRVNKTCSDLLVNEGGEHGFNSLIKQNGNIILTEWHNSLIKDDS", "values": [{"measurement": "protein production", "value": "failed"}]}
{"sequence": "EDFVDPWTVQTSSAKGIDYDKLIVRFGSSKIDKELINRIERATGQRPHHFLRRGIFFSHRDMNQVLDAYENKKPFYLYTGRGPSSEAMHVGHLIPFIFTKWLQDVFNVPLVIQMTDDEKYLWKDLTLDQAYSYAVENAKDIIACGFDINKTFIFSDLDYMGMSSGFYKNVVKIQKHVTFNQVKGIFGFTDSDCIGKISFPAIQAAPSFSNSFPQIFRDRTDIQCLIPCAIDQDPYFRMTRDVAPRIGYPKPALLHSTFFPALQGAQTKMSASDPNSSIFLTDTAKQIKTKVNKHAFSGGRDTIEEHRQFGGNCDVDVSFMYLTFFLEDDDKLEQIRKDYTSGAMLTGELKKALIEVLQPLIAEHQARRKEVTDEIVKEFMTPRKLSFDFQ", "values": [{"measurement": "protein production", "value": "not failed"}]}
{"sequence": "MMPLKDGDFVLINYTVKVVEDGSERVIDTTLEEVAKKSGIYDPKRVYKEFPVIVGKTSLLGPLEKVLKELDVGERREVEVPPEEAFGEYKKELVVRVPVKRLRRMNIPVRVGEEVEAGGRRGKIIRVTERFAFIDFNHPLAGKKLKIEVEVVGKVDSVEDKARILAARALGLDPDKIHAEVREGGKEITLKLPPEVLGLSDLDALLAKAVSDVREYLSPRKVDVVISIEFPEEAREEAEASDTGEGGEAEGESEQAAEPGGGEERQEG", "values": [{"measurement": "protein production", "value": "failed"}]}
{"sequence": "MKTLVHLSDLHFGKTESHLVDAIAAEVRAVDSDLLVVSGDLTQRARKDEFLQARAFLDSLPGPRIVVPGNHDVPLWNVFARAMTPLSRYRRYIEADTDPFYADSEVAVVGINTARSLTIKNGRINVRQLKAATEKFAYMSDDITRIVVTHHPFEGLDLESDDGIVARADLAMDAFSRSGVDIILSGHQHLHRAGSSARRYLIDGYAALLVQAGTAVSSRVRQAANSFNIIRIEHPRISIECRAWQSLQSGFETSASYSFRQGSGGWEPALEHHHHHH", "values": [{"measurement": "protein production", "value": "failed"}]}
{"sequence": "MIDIHCHILPEIDDGPSSLEESLVMAREAVKEGITKIIATPHHLHPSYNNKAAVVKEKVRKLNEAIQKENIPLEILPGQEVRISGDVMDGLVSGDILTLADQGKYLFVEFSSNHVSRYADKLFFQLLSQDIIPIIVHPERNHEFLKNPGLLYDLVNGGALTQITTSSLTGHLGKKIKKFTEQIIEADLTHFLASDAHNVTERTFRIREAFALVEKNYGSSKAYEFQENAELLVENQHVMGPPPQPIVKKKLLGIF", "values": [{"measurement": "protein production", "value": "failed"}]}
{"sequence": "MAKVCYFTGRKTVSGNNRSHAMNKTKRVVKPNLQKVTVLIDGKPKKVWASARALKSGKVERVLEHHHHHH", "values": [{"measurement": "protein production", "value": "failed"}]}
{"sequence": "MHLSLLVPFLFWITGCCTAEDPVTGPEEVSGQEQGSLTVQCRYTSGWKDYKKYWCQGVPQRSCKTLVETDASEQLVKKNRVSIRDNQRDFIFTVTMEDLRMSDAGIYWCGITKGGLDPMFKVTVNIGPAIQVPITVPTMPPITSTTTIFTVTTTVKETSMFPTLTSYYSDNGHGGGDSGGGEDGVGDGFLDLSVLLPVISAVLLLLLLVASLFAWRMVRRQKKAAGPPSEQAQSLEGDLCYADLSLKQPRTSPGSSWKKGSSMSSSGKDHQEEVEYVTMAPFPREEVSYAALTLAGLGQEPTYGNTGCPITHVPRTGLEEETTEYSSIRRPLPAAMP", "values": [{"measurement": "protein production", "value": "not failed"}]}
{"sequence": "MGRLVSLLPSATDLIFELGLGEQLLGVSHCCDHPGAASLPVLTRSIIGSDLPQAEIDRAVSEAVRAGRALYTVDGPLLDRLRPDLVVTQGVCEVCAVTPGTVAEAVRFLPGCLPAEQVLSLEGKTFAGILADLRALARAAGLEHHHHHH", "values": [{"measurement": "protein production", "value": "failed"}]}
{"sequence": "MTEGLAVELAGLRSFSIVMPAYNVVTQRGERIFRETLESIAASCRYLQQHFPYTPEGELILISDGSTDRTCDVAMAGWPNAVPLQLVGLPTNVGIAAARNIGVRLAKGEVIFFCDADDLYRPEHLFLALSVLNQPLPEPYAPAYFGAVRTGVYCRDRLHPYWHKSLEQTLVLNLAVRREVHEFIGGFPEDEVFRQFRYGAEDVAYAYWLHQFCHTARLEQRTVEYRRFPNSVFDRQLKKFQAAPGTVADDLDEGDRQQEAQIRQIMATRLQELQAKAAQGVALEHHHHHH", "values": [{"measurement": "protein production", "value": "failed"}]}
{"sequence": "MEGYSRNGEISPKLLDLMIPQERRNWFHDEKNSVFKTEEKKLELKLGPPGEEDDDESMIRHMKKEPKDKSILSLAGKYFSPSSTKTTSHKRTAPGPVVGWPPVRSFRKNLASGSSSKLGNDSTTSNGVTLKNQKCDAAAKTTEPKRQGGMFVKINMYGVPIGRKVDLSAHNSYEQLSFTVDKLFRGLLAAQRDFPSSIEDEKPITGLLDGNGEYTLTYEDNEGDKMLVGDVPWQMFVSSVKRLRVIKTSEISSALTYGNGKQEKMRR", "values": [{"measurement": "protein production", "value": "failed"}]}
{"sequence": "MDELRELLKGEQQGIKILKEVLKKAKEGDEQELARLNQEIVKGEKQGVKVYKEAAEKARNPEKRQVIDKILEDEEKHIEWHKAASKQGNAEQFASLVQQHLQDEQRHVEEIEKKNLEHHHHHH", "values": [{"measurement": "protein production", "value": "not failed"}]}
{"sequence": "MDLFDTPLAPLQVLDDAEGGVRYWPQLLAPAVAQAAFAALRDGADWQRHQRTMYDRVVDVPRLLASYRLDAPLPPGLPLQLLLAAVQAQLPAPYNAVGLNLYRDGRDSVAMHHDKLHTLLAPHPIALLSLGTPRRMQLRAKQGATRAITLELAPGSLLAMSHASQLTHEHGIPKTTRALGERISVVFRVRPPARMAAGQHGPHWEALTQTDLEHHHHHH", "values": [{"measurement": "protein production", "value": "not failed"}]}
{"sequence": "MISFSVMALVFGVVFLAELPDKTALAGLVLGTRYRASYVFAGVAAAFALHVALAVAAGSVLTLLPQQIVHALTGVLFLGGAAVLLMKKGEGEEEIRKPENQSFWKVSSAGFMLILVAEFGDLTQIMTANLAARYDDPLSVGLGAVLALWAVAGLGIVGGRALMKRVPLRLITKVAALLMLALGAWSLYEAVAG", "values": [{"measurement": "protein production", "value": "failed"}]}
{"sequence": "MIVVKVGGAEGINYEAVAKDAASLWKEGVKLLLVHGGSAETNKVAEALGHPPRFLTHPGGQVSRLTDRKTLEIFEMVYCGLVNKRLVELLQKEGANAIGLSGLDGRLFVGRRKTAVKYVENGKVKVHRGDYTGTVEEVNKALLDLLLQAGYLPVLTPPALSYENEAINTDGDQIAALLATLYGAEALVYLSNVPGLLARYPDEASLVREIPVERIEDPEYLALAQGRMKRKVMGAVEAVKGGVKRVVFADGRVENPIRRALSGEGTVVR", "values": [{"measurement": "protein production", "value": "not failed"}]}
